# Where two headings read alike, the source gives them in different places.
# B1: viral macrophage inflammatory protein (vMIP)-II encoded by human herpesvirus 8 (HHV8) (ligand, UniProt Q98157 21-94, looked up)
# chain: GDTLGASWHRPDKCCLGYQKRPLPQVLLSSWYPTSQLCSKPGVIFLTKRGRQVCADKSKDWVKKLMQQLPVTAR
# B2: MC148 CC chemokine from molluscum contagiosum virus (MCV), processed secreted protein (ligand, molluscum contagiosum virus subtype 1, UniProt Q98314 1-104, looked up)
# chain: LARRKCCLNPTNRPIPNPLLQDLSRVDYQAIGHDCGREAFRVTLQDGRQGCVSVGNKSLLDWLRGHKDLCPQIWSGCESL
# B3: I-309 (ligand, human, UniProt P22362 24-96, looked up)
# chain: KSMQVPFSRCCFSFAEQEIPLRAILCYRNTSSICSNEGLIFKLKRGKEACALDTVGWVQRHRKMLRHCPSKRK
# Key:
# [1] = biological target: T1, CC chemokine receptor 8 (CCR8) (human, UniProt P51685 1-355); test: radioligand binding
# [2] = biological target: T1, CC chemokine receptor 8 (CCR8); test: radioligand binding; remark: listed apart in the source
# T1 sequence (P51685 whole entry): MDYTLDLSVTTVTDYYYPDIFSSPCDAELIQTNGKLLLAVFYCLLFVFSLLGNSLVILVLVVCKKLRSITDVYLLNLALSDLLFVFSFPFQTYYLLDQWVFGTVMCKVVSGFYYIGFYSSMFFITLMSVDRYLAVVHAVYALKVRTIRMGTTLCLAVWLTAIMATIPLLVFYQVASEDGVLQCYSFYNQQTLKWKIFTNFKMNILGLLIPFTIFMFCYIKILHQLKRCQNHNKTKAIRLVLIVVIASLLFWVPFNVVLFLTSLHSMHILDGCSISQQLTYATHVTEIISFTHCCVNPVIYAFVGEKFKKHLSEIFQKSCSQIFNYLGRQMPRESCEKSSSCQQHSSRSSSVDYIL
Binder,IC50 [1],IC50 [2]
B1,27.8 nM,–
B2,0.47 nM,0.27 nM
B3,0.52 nM,–
